According to the DeepSol protein solubility set:

Experiment: soluble on expression in E. coli; label from the status in PepcDB or PDB records

Q: With “MARPLEQAVAAIVCTFQEYAGRCGDKYKLCQAELKELLQKELATWTPTEFRECDYNKFMSVLDTNKDCEVDFVEYVRSLACLCLYCHEYFKDCPSEPPCSQ” as the sequence, how does the “soluble on expression in E. coli” value read?
A: soluble

Q: With “MSLGHPVDTFRRENKALRESAARLQKAMNGVLETADDGDASARLLEWRQALNELQDVDKHYQRKEHLLSTCLERHGITGPSKVMWGKDDQIRELLKDTSVALRQSDTSVAELKVLAATTGAAAAGAVHEMIYKEEQILLPICLERFTADEWAEIWASSPRYGWCLVEPRQGYKPFTSEAAGRASVDGGVSLPTGALALEQLIAIFSTLPVDLTFVDANDRVAFFSEGPSRVFARSRTIVGRMVQNCHPPRSVDVVERILSDFREGRQNVAEFWLQFVGRFVHIRYFAVRSEDGRYLGTLEVTQDVGPIRALEGERRLLEYAEPSEGHHHHHH” as the sequence, how does the “soluble on expression in E. coli” value read?
A: not soluble

Q: With “MKTPNAQEAEGQQTRAAAGRATGSANMTKKKVSQKKQRGRPSSQPRRNIVGCRISHGWKEGDEPITQWKGTVLDQVPINPSLYLVKYDGIDCVYGLELHRDERVLSLKILSDRVASSHISDANLANTIIGKAVEHMFEGEHGSKDEWRGMVLAQAPIMKAWFYITYEKDPVLYMYQLLDDYKEGDLRIMPESSESPPTEREPGGVVDGLIGKHVEYTKEDGSKRIGMVIHQVEAKPSVYFIKFDDDFHIYVYDLVKKS” as the sequence, how does the “soluble on expression in E. coli” value read?
A: soluble

Q: For “SASGYQFGSVDQVEGGSVQYTRKYLGTGNLNDLYVGIGATPFKNFSIGANASSLFGRFTHSRQVIFSTEAPYNPVHLSTLYLKAAKFDFGMQYHLLLKSDRSLVIGAVYSPRVKMHSELTQIKNQVQNGVVVESETQEYIKGMDYYTLPHTLGIGFSYEKKDKLLLGADVQYSKWKGEKFYKSDCKFQDRIRVSLGGEIIPDINAVGMWPKVRYRFGLHGENSYLKVPTKGGV”, which “soluble on expression in E. coli” value is on record?
A: not soluble

Q: With “MVGFLKHLVPKRFRKKELVIPVVRMQGAIMAGGNQFRPALNLASYAPLLEKAFAVKDAPAVAISLNSPGGSPVQARMIYNRIRQLAEEKDKKVLIFVEDVAASGGYMIALAGDEIIADPTSIVGSIGVVSGGFGFPEMLRKIGVERRVYTAGENKVILDPFQPEKEGDIDYLKSLQVEIHNVFIDMVKMRRGSKLKGDDALFSGLFWTGMRGLDLGLIDGLGDMREVLRRRYGTKVKLQLISGGRSLFGKKVPGVNMALGLNAERLAAGAVSGLAEVAEEKALWSRFGLLEHHHHHH” as the sequence, how does the “soluble on expression in E. coli” value read?
A: soluble

Q: With “MEKSVSVILLAGGQGKRMKMSMPKQYIPLLGQPIALYSFFTFSRMPEVKEIVVVCDPFFRDIFEEYEESIDVDLRFAIPGKERQDSVYSGLQEIDVNSELVCIHDSARPLVNTEDVEKVLKDGSAVGAAVLGVPAKATIKEVNSDSLVVKTLDRKTLWEMQTPQVIKPELLKKGFELVKSEGLEVTDDVSIVEYLKHPVYVSQGSYTNIKVTTPDDLLLAERILSEDS” as the sequence, how does the “soluble on expression in E. coli” value read?
A: soluble

Q: Which “soluble on expression in E. coli” value does the source give for “MSLTHSTMHPYISLLDNEIYTHQGKEVITNMYNIIEKNLTLNLIANNVQYHPNQKTISFTHPSITIFNNKNIAIWYITCNQAQLYHQKKTLNLHGQVFINQIVKKICTQSIITNQLLIDLNNQSIISNNKTIIHGHYFYSIGSCMNINLHTQTTTLFGKIYTQYEIQNMEGHHHHHH” here?
A: not soluble

Q: For “MSLKLVKPKKFLGQHFLKDLKVAQDIADTVDTFPELPVLEVGPGMGVLTQFLVKKDRLVKVVEVDYESVAYLREAYPSLEDHIIEDDFLKMNLHRLFDGKPFVLTGNYPYNISSQIFFKMLENKDIIPCCTGMIQKEVAERIAAGPGSKTYGILSVLIQAWYKVEYLFTVSEHVFNPPPKVKSAVIRMTRNDTKEGHHHHHH”, which “soluble on expression in E. coli” value is on record?
A: not soluble

Q: Which “soluble on expression in E. coli” value does the source give for “MSNRVPTNILTGFLGVGKTTTILNLLKNKPENENWAVLVNEFGEIGIDGALMTDQGALIKEVPGGCMCCTAGVPMSVGITALLRQKPDRLLIEPTGLGHPKQVIATLTSEQYLPYVDLKATIALVDPRNLSDEKYTSNQNFVDQLDSADVVIGSKVDLCSSHDIDVFNDWVTDQTPAKVFSKLIHNGELPIEVLDIERVHGSASSHIETHHHEHAHQEPQFQLPPGEAFIRKENKGQGYFSCGWLFGAEYKFDFDKLFSMLSDLTAERVKAVVNTNQGCYAFNVANRVVSVNEISLEGFESRLEVIDSQLLPWDELEQILLQLAGVEGLEHHHHHH” here?
A: soluble

Q: Which “soluble on expression in E. coli” value does the source give for “MGSDKIHHHHHHMTEITTLSQFLTTAKTQFQVYDLGRRVQHIDMLAFHQIESLATPYPYPIQGHAQFAIVFWDASQQHFIWFLKLALDEQGLLSPAPRSQFIEMVLSALGQDPTQPLSNEQQEHLANNPFSFTPSQEKLAVFNALVRKQLGQHASVQYEFAMQYLSGQIAPSQWQHIGIQGIADVCVRANELDHEAKLLTSFDSAAIEVQIALCQCLEHVQISPLLANKILNKLTAAEPEHKAYFLRALASNSELSQKALAHLHQGSNLDANTLISIAGRNWTVLKQELSRSIYLEALALQPQTFFNQIFADIVAIPSLRNLLLGELRNPNRSIQLSQAIGGLFKAASK” here?
A: not soluble

Q: With “MKKIEIFDPAMCCPTGLCGTNINPELMRIAVVIESLKKQGIIVTRHNLRDEPQVYVSNKTVNDFLQKHGADALPITLVDGEIAVSQTYPTTKQMSEWTGVNLD” as the sequence, how does the “soluble on expression in E. coli” value read?
A: soluble

Q: Which “soluble on expression in E. coli” value does the source give for “MSNSLEERLRANSSAFDGLLALIPAKYYYDEKSQEQWKAKKKTKEQSKNDKLKKLDPEQRDDETSSTLEVMKKKEKDAKPVVLPGEKFKHMKMQKQKEATSKVEGDSDLNVEVNDPMIIAPDEDEEEEEDIKVIFDDEGNEIPLESKKDTTEPDRSVEKKSITEEEKLQRKKNLEALRSKLQAKISDMKSKRKAPGSREAILAQRKRKEELKKRKRLESEQEQDQDEIASDSDMEDIDSDLENNSKKRFKKGKKDSEINADGVMFQNIIFDDGARATSDLQRLRKAGRTKGPAKNDVKSHLKLLEAKKNKMEAKDELEQIKQKEKEKWQKAMLQAEGIKIRDDEKLLRKAIKRKEAQKRKSAIEWSERKRVVEDTISERQKRREENLRIRKDNKGKKRNKQEKMKRKYVGSAVPKKRAGFEGRLKTGKKKGGPK” here?
A: not soluble

Q: With “MSLVEVYLNSSSMIPIDRYYEYDIYDLVIEAYKNFEGEYDVNSIDLIVVANAYSQKLNNASLIAPKIAEKIGKPNVPSIKVDNADASGGAALLTAYSLIKSNMVNSVLIVGVEKQSDYPSKYLYDAISTNLDDYMFYNGISSHSVAALLMRQYMKRYGVDRNYFANWAIKMHKNATENPFAYLRFQVDLNTVINSQIISDPVRLFDVGARADGAAILLLSNNKTESAVKINKILSAQARYDFSPSLPSVRMLRDKLELKFSERTGIDIHDSYSIMAALMLEEAGIFESGKSLHNLDSVNVNLGGGLKARGHVGGASAIYQLAEAHMQLIGSFKGKKASVDNYIVISSDDLGMVSYGINLSREGHHHHHH” as the sequence, how does the “soluble on expression in E. coli” value read?
A: not soluble

Q: For “AGGEDRGDGEPVSVVTVRVQYLEDTDPFACANFPEPRRAPTCSLDGALPLGAQIPAVHRLLGAPLKLEDCALQVSPSGYYLDTELSLEEQREMLEGFYEEISKGRKPTLILRTQLSVRVNAILEKLYSSSGPELRRSLFSLKQIFQEDKDLVPEFVHSEGLSCLIRVGAAADHNYQSYILRALGQLMLFVDGMLGVVAHSDTIQWLYTLCASLSR”, which “soluble on expression in E. coli” value is on record?
A: not soluble

Q: For “MGSDKIHHHHHHMGSPYIQARLSQIGDLMSFGIIQLDYEEVLAKHYRRWIQPGDTVIDVGAHLGLHLSRFIELAGPTGQVIGFEPLPFAFDILSTQHACPTLTLNNVALAHEPGHAEFTFAQGSPGESGLRKRLYISPETVTPTLIPVKVDTLDMHTENLRSVDYIKIDIEGGEIGCLEGATRTIDKFRPLISTEYGYPSYSVYGLTKDSLFNFASSKNYVLFDIFLNRIDTRDEWHIVCDSICWDYFLVPAEKLDVFTERVARRAF”, which “soluble on expression in E. coli” value is on record?
A: not soluble

Q: For “MAGAGHKEDKSVTKKLIKKESKSDITIYFKQREESEDNNANPINISRSSEKDRVIMLVNGSNGSKKNLASELNVRRSVAQTGAGGVTQPKPLLNDINTKSHAFIQSRLEKMRKGL”, which “soluble on expression in E. coli” value is on record?
A: not soluble

Q: With “MGSDKIHHHHHHMSKLVTIYGGSGFVGRYIARRMAKEGWRVRVAVRRPNEAMHVKPYGAVGQVEPVLCNLRDDNSVAQTMRGADAVVNCVGVLNELGRNSFDAVQAEGAERIARIAAEQGVARMVHVSAIGADGDSDSAYSRSKALGEAGVLRHMPDAMILRPSVIFGTEDQFFNRFAGMTRFGPFLPVVGAETRFQPVYVDDVARAAVKGVLGQAPGGVYELGGPDVETFRALMQRMLGVIHRKRIIIALPFFAARIMAGMLDVAKFVSFQLFPNNILTRDQLKNLRRDNVVSEGAKGFADLGIAPEPMDTVLPAYLWKFRPNGQYDEIQASAKNLRA” as the sequence, how does the “soluble on expression in E. coli” value read?
A: not soluble

Q: With “PLRLALSKLLVKANQPSAALSPLVHLPPMPSRDYLAMRAALAQKQKQNDIALESYQLLTQREPDNARWWLGLAIQQERALTFTAAINSYNEALGKVGISNQSQAFIRDRLTILKQLESAQ” as the sequence, how does the “soluble on expression in E. coli” value read?
A: not soluble

Q: For “MHVNGKVALVTGAAQGIGRAFAEALLLKGAKVALVDWNLEAGVQCKAALDEQFEPQKTLFIQCDVADQQQLRDTFRKVVDHFGRLDILVNNAGVNNEKNWEKTLQINLVSVISGTYLGLDYMSKQNGGEGGIIINMSSLAGLMPVAQQPVYCASKHGIVGFTRSAALAANLMNSGVRLNAICPGFVNTAILESIEKEENMGQYIEYKDHIKDMIKYYGILDPPLIANGLITLIEDDALNGAIMKITTSKGIHFQDYDTTPFQAKTQ”, which “soluble on expression in E. coli” value is on record?
A: not soluble

Q: For “MAHHHHHHMADATLLHHLIEVLPKAELHVHIEGTLSPELLFELAKRNGVQIPYKTVEEVRVAYNFTDLQSFLDLYYEGMSVLITEDDFEDLAYAYTRVMHESRVVHAEPFFDPQGHLCRGVTFRVLYDGLMRGFRRGEAEFGVSVMLIFSFLRHLSEEECLALVLDDMHPDNGQYIRELFVAKAFVAVGLDSSELGHPPEKFARLYRYCREELKVPFLVAHAGEEGPPEYMRDAMSMLKVDRIDHGVAARLDQALCKDLREKRIPLTVCPTSNVALKVFQDRATCGAVVMDLILTEGLCVTINSDDPAYFGGDIRESFRILAETGRLTPATLKQLVLNSFSSSFIADDSKRAYKERVEKVFKDVCGGTYE”, which “soluble on expression in E. coli” value is on record?
A: soluble

Q: With “MKLLLIGYGNVGKAFRRLLHEKKDNYPILQGVEIAGIITRQGLMVGDKENFSPDKQLTVLEAIDYINPDVIVDMSVPNYKDGEPSVSAYIKALSRKIHVITVNKAPLALKFREIFEVAEKTGAKIGFQGTVMSGTPSINLFRIQPVAEVSRIRGILNGTTNYILTRIYEGLSFNEALKEAKEKGYAEEDPTLDLNGFDAAAKLTILSNFIMNRSLKLGDFKFKGITEITNEEIRRAKSEGKKIKLIAYADNYVVQVSPQIIGPQDPLYYIDGVENALEIQNEIQRIIIRGPGAGPINAAYGALSDLVLLLEGCL” as the sequence, how does the “soluble on expression in E. coli” value read?
A: not soluble

Q: Which “soluble on expression in E. coli” value does the source give for “MMRNFGREFLEETSIFENKTCLIWRDREISFKEFHEYIGKWKNVLDEQKTKTTNPLRIALFCTNSPDILAIIVAGQLSGVTVIPLNPSYKKYEIDEYISKSIANFIIVSDDVDLDKFEEREVNLISELFTSNVTPSSTASTPENQGVIVFFSSGTTGPPKQFEYTQRILCSQIDQIKAIRSDPRFFSPSTDDICYGVLPFFHAGGLITILSMIFSGCTVLINERWNEHEFLANCQNYKVSVLFLVPPVLNFFANHPLVSSYDLSALKTIYVGAAASPPENFAKVAERLPELENLIQLYGTSECGVLLCSTGKGKASGKTVGWPFPFVELKINPENNEIFVKSATAMEEGFMETGDLGCLSFKTIELMIVGRSKEMMKIRGWQVNPNEVEDVIRKVEGVLDCAVYQNQEKLTAKIIGNPDSKADIFKIVKDNLASYKQLDDVIFVEELPRNPSGKLVRHMLH” here?
A: not soluble

Q: With “MQDLLTLRFLDTYDNILFIGNSGVGKTHLAVSIGLECIDRGLSCLFITSTELVNRLIRAHKRGTSETMLKKYSGYSVLIIDEVGYLPFSKEGSNLLFQLINMRYERKSTIVTTNIPLSQWSEIFGNKKLTNALLDRLVHHSKLIQITGPSYRMKSYSENKEVKSLEHHHHHH” as the sequence, how does the “soluble on expression in E. coli” value read?
A: soluble
